Starred links: 1 amine or outer side, 2 acyl side, 3 side chain; linkers in the order of their positions; H or OH if unused. Positions of bridges follow the written chain, without caps; N, C: chain ends. Primed or numbered codes have the meaning given here. No end group written: not given here. *: point of attachment. mClBz(3) = 3-(chloromethyl)benzoic acid, non-amino acid initiator forming a thioether with the C-terminal-region Cys, O=C(c1cccc(C[*:3])c1)[*:2]; mClBz(4) = 3-(chloromethyl)benzoic acid initiator, its benzyl thioether with a Cys side chain closes the ring, O=C(c1cccc(C[*:3])c1)[*:2]; mClBz = N-terminal group cyclised as a benzyl thioether to a Cys, O=C(c1cccc(C[*:3])c1)[*:2]; C10F9 = S-aryl group from decafluorobiphenyl, Fc1c(F)c(F)c(-c2c(F)c(F)c(*)c(F)c2F)c(F)c1F; C6F5 = pentafluorophenyl group on the Cys sulfur, Fc1c(F)c(F)c(*)c(F)c1F
Tests used:
Lys48-linked Di-Ub = target: T1, Lys48-linked Di-Ub (UniProt P0CG47 1-76, isopeptide bond between the C-terminal Gly of one Ub and Lys48 of the other); assay: fluorescence-based assay of relative binding on Lys48-linked Di-Ub, normalised to mJ08-L8W; the labelled competitor is not named [iv]
T1 construct: mature

Lys48-linked Tetra-Ub = target: T2, Lys48-linked Tetra-Ub (UniProt P0CG47 1-76, isopeptide bonds between the C-terminal Gly and Lys48 of successive Ub units); assay: fluorescence-based assay of relative binding on Lys48-linked Tetra-Ub, normalised to Ub4_ix; the labelled competitor is not named [panel headed '(iv) Binding of 1 and 2 against Lys48 Tetra-Ub as a target' (v) of the legend]
T2 construct: mature

[1] = target: T3, biotinylated-Lys63 linked Di-Ub (UniProt P0CG47 1-76, isopeptide bond between the C-terminal Gly of the distal Ub and Lys63 of the proximal Ub; biotin tag at the N-terminus of the distal Ub); assay: fluorescence-based competitive assay: unlabeled peptide, 5.0 molar equiv., pre-bound to biotinylated Lys63-linked Di-Ub on a streptavidin plate, then competed with CP1-FITC (1 equiv.); signal change relative to 1 (CP1), Y=[1-(a/b)]x100
T3 construct: mature; Immobilised on streptavidin plates or on the SPR CAPture chip; also called K63-linked Di-Ub; biotin-Lys63 linked Di-Ub
Method: Streptavidin-coated microplate (96 well plate) was washed with HEPES buffer (50 Mm HEPES, 150 Mm NaCl, pH 7.30) and then in each well incubated 1 μg of biotinylated-Lys63-linked Di-Ub in 100 μl of the same buffer at RT. for 30 min. Additional wells were kept without biotinylated-Lys63-Di-Ub for blank subtraction. After the washing step, peptide standard (CP1) and unlabeled peptides were incubated (5.0 molar equivalent relative to biotin-Lys63-linked Di-Ub) at RT for 30 minutes for saturation binding to the target. Then 1 molar equivalent of FITC labeled peptide-standard (CP1-FITC) relative to biotinylated-Lys63-linked Di-Ub was incubated to compete with unlabeled peptides at RT for 30 min. After releasing bounded peptides on treatment with 6 M Guanidinium chloride (Gnd·HCl), the fluorescence values were measured (λex=480 nm and λem=525 nm). These values were normalized and then calculated the relative change in binding with the following formula:
Y=[1−(a/b)]×100 [0289] Where Y=Signal change relative to the standard (CP1) (in terms of %). [0290] a=Measured signal value of each peptide candidate (in Relative Fluorescence Units). [0291] b=Measured signal value of standard peptide (CP1). The dissociation constant (KD) of fluorescein-labeled peptide (CP1-FITC) was calculated in accordance with the literature procedure (Vamisetti G B et al., 2021).

[2] = target: T3, biotinylated-Lys63 linked Di-Ub; assay: SPR (BIACORE T100), biotinylated Lys63 Di-Ub on a CAPture chip
Method: The binding of cyclic peptide 1 (CP1) against the target, Lys63 linked Di-Ub was determined using BIACORE T100 instrument (GE Healthcare) equipped with a biotin CAPture kit series S chip. 50 mM HEPES (pH=7.30, 150 mM NaCl, 0.05% Tween 20, 2.0 mM DTT, 0.2% DMSO) was used as buffer. Biotinylated-Lys63 linked Di-Ub was loaded on the SPR chip. By using various concentrations of peptide.

| binding result (Lys48-linked Di-Ub) | binding result (Lys48-linked Tetra-Ub) | binding result [1] | Kd [2] [nM] | Binder |
| --- | --- | --- | --- | --- |
| binds | binds | binds |  | mClBz-CLIWIGSSKNPYILCG (bridge N-15; not fully specified (C-terminus, bridges), also called CP2) [cyclic peptide 2 (CP1-L1C)] |
|  |  |  | 16 | {mClBz(4)}-LLIWIGSSKNPYILCG-NH2 (thioether N-15; SMILES CC[C@H](C)[C@@H]1NC(=O)[C@H](Cc2c[nH]c3ccccc23)NC(=O)[C@H]([C@@H](C)CC)NC(=O)[C@H](CC(C)C)NC(=O)[C@H](CC(C)C)NC(=O)c2cccc(c2)CSC[C@@H](C(=O)NCC(N)=O)NC(=O)[C@H](CC(C)C)NC(=O)[C@H]([C@@H](C)CC)NC(=O)[C@H](Cc2ccc(O)cc2)NC(=O)[C@@H]2CCCN2C(=O)[C@H](CC(N)=O)NC(=O)[C@H](CCCCN)NC(=O)[C@H](CO)NC(=O)[C@H](CO)NC(=O)CNC1=O, Found by RaPID selection, then made by Fmoc-SPPS; also called lead cyclic peptide 1) [cyclic peptide 1 (CP1)] |
|  |  | binds |  | mClBz-C(C10F9)LIWIGSSKNPYILCG (thioether N-15) [cyclic peptide 21, CP1-L1C-C10F9] |
|  |  | binds |  | {mClBz(3)}-C(7‑methoxycoumarin‑4‑ylmethyl)LIWIGSSKNPYILCG (bridge N-15; not fully specified (C-terminus, bridges)) [cyclic peptide 19, CP1-L1C-CH2C10H7O3] |
|  |  | binds |  | mClBz-C(C6F5)LIWIGSSKNPYILCG (thioether N-15) [cyclic peptide 20, CP1-L1C-C6F5] |

— US20250099534A1 (TECHNION RESEARCH AND DEVELOPMENT FOUNDATION, published 2025)
